Experimental findings from article PMC10053502 are described below.

The test deals with S. pneumoniae DNA topoisomerase I (TopoI), purified (S. pneumoniae).

Consider “histidine-tagged StaR (H6-StaR), product of spr0929 of Streptococcus pneumoniae R6 (natural protein)”, for which the relaxation of pBR322 by TopoI in vitro (37 °C, 1 h) with increasing StaR concentrations; percent of topoisomers (including OC/RC forms) at the highest StaR concentration (CCC form fell to 2.5%) was found to be 97.5%.
